Laboratory results as given in patent US20240058465A1 (SUTRO BIOPHARMA, published 2024).

Columns and labels:
[1] = biological target: T1, human ROR1 Frizzled domain (hROR1-Fz) (human, UniProt Q01973 165-305); assay: SPR Biacore, IgG on anti-Fc, ROR1-Fz analyte
T1 construct: Acro Biosystems, made in HEK293
Summary of the method: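 Test antibodies captured on an anti-Fc surface (CM5 chip), then analyte bound for 180 s with 600 s dissociation at 25° C in HBS-EP+ buffer at 50 μL/min. Human ROR1 ECD, Frizzled or Kringle domain used as analyte; regeneration with 10 mM glycine pH 2.0.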

human ROR1 (hROR1) [2] = biological target: T2, human ROR1 (hROR1) (human, UniProt Q01973 30-937); assay: cell-based or functional assay
human ROR1 (hROR1) [3] = biological target: T2, human ROR1 (hROR1); assay: flow cytometry, HCT116-hROR1 cells
[4] = biological target: receptor tyrosine kinase orphan receptor 1 (ROR1) on Ntera-2 cells (human, UniProt Q01973 30-937); assay: cell-based or functional assay

| Kd [1] [pM] | koff [1] [s⁻¹] | kon [1] [M⁻¹ s⁻¹] | Bmax (MFI) (human ROR1 (hROR1) [3]) | Kd (human ROR1 (hROR1) [3]) [pM] | Binder | Mino Nb-PBD, drug-conjugated 2° antibody Cell Killing EC50 (human ROR1 (hROR1) [2]) [pM] | Mino Nb-PBD, drug-conjugated 2° antibody Cell Killing Span (human ROR1 (hROR1) [2]) [%] | cell killing EC50, NTERA-2 cells [4] [pM] | cell killing Span, NTERA-2 cells [4] [%] |
| --- | --- | --- | --- | --- | --- | --- | --- | --- | --- |
| 2370 | 0.000273 | 115000 | 15700 | 640 | SRP2193-C11 (antibody, IgG1, V domains shown, His/FLAG-tagged IgG1, cell-free) VH: EVQLVESGGGLVQPGGSLRLSCAASGFNIADSYIHWVRQAPGKGLEWVAVIDPKSGSTNYADSVKGRFTISADTSKNTAYLQMNSLRAEDTAVYYCARSRWFRVLWSYVFDYWGQGTLVTVSS VL: not shown | 1.5 | 63 | – | – |
| 6200 | 0.00173 | 278000 | 15800 | 850 | SRP2193-C02 (antibody, IgG1, V domains shown, His/FLAG-tagged IgG1, cell-free; also called Antibody 81) VH: EVQLVESGGGLVQPGGSLRLSCAASGFNISDYYIHWVRQAPGKGLEWVGTIDPQSGSTVYADSVKGRFTISADTSENTAYLQMNSLRAEDTAVYYCARSRWFRVLWSFVFDYWGQGTLVTVSS VL: not shown | 3.4 | 62 | – | – |
| 2810 | 0.000292 | 104000 | 15000 | 700 | SRP2193-D04 (antibody, IgG1, V domains shown, His/FLAG-tagged IgG1, cell-free; also called Antibody 71) VH: EVQLVESGGGLVQPGGSLRLSCAASGFNINGFYIHWVRQAPGKGLEWVGAIDPNGGSTVYADSVKGRFTISADTSKNTAYLQMNSLRAEDTAVYYCARSRWYRVLWSYAFDYWGQGTLVTVSS VL: not shown | 4.5 | 65 | – | – |
| 1900 | 0.000226 | 119000 | 15200 | 230 | SRP2193-B09 (antibody, IgG1, V domains shown, His/FLAG-tagged IgG1, cell-free; also called Antibody 75) VH: EVQLVESGGGLVQPGGSLRLSCAASGFNINNSYIHWVRQAPGKGLEWVGIIDPNNGSTAYADSVKGRFTISADTSKNTAYLQMNSLRAEDTAVYYCARSRWYRVLWSYVLDYWGQGTLVTVSS VL: not shown | 2.9 | 67 | – | – |
| 2220 | 0.000394 | 178000 | 15500 | 350 | SRP2193-C09 (antibody, IgG1, V domains shown, His/FLAG-tagged IgG1, cell-free; also called Antibody 118) VH: EVQLVESGGGLVQPGGPLRLSCAASGFNINHSYIHWVRQAPGKGLEWVGAIDPISGSTVYADSVKGRFTISADTSKNTAYLQMNSLRAEDTAVYYCARSRWSRVLWSYVFDYWGQGTLVTVSS VL: not shown | 1.6 | 64 | – | – |
| 1130 | 0.000178 | 158000 | 15300 | 150 | SRP2193-B01 (antibody, IgG1, V domains shown, His/FLAG-tagged IgG1, cell-free) VH: EVQLVESGGGLVQPGGSLRLSCAASGFNIGGYYIHWVRQAPGKGLEWVGAIDPRSGYTVYADSVKGRFTISADTSKNTAYLQMNSLRAEDTAVYYCARSRWFRVLWSFVLDYWGQGTLVTVSS VL: not shown | 2.3 | 66 | – | – |

The remaining lines, values behind:

| Binder | Kd [1] [pM] | koff [1] [s⁻¹] | kon [1] [M⁻¹ s⁻¹] | Bmax (MFI) (human ROR1 (hROR1) [3]) | Kd (human ROR1 (hROR1) [3]) [pM] | Mino Nb-PBD, drug-conjugated 2° antibody Cell Killing EC50 (human ROR1 (hROR1) [2]) [pM] | Mino Nb-PBD, drug-conjugated 2° antibody Cell Killing Span (human ROR1 (hROR1) [2]) [%] | cell killing EC50, NTERA-2 cells [4] [pM] | cell killing Span, NTERA-2 cells [4] [%] |
| --- | --- | --- | --- | --- | --- | --- | --- | --- | --- |
| SRP2193-D02 (antibody, IgG1, V domains shown, His/FLAG-tagged IgG1, cell-free) VH: EVQLVESGGGLVQPGGSLRLSCAASGFNIKDYYIHWVRQAPGKGLEWVGAIDPESGSTVYADSVKGRFTISADTSKNTAYLQMNSLRAEDTAVYYCARSRWFRVLWSYVFDYWGQGTLVTVSS VL: not shown | 6940 | 0.00101 | 146000 | 15500 | 1220 | 3.8 | 61 | – | – |
| SRP2193-D05 (antibody, IgG1, V domains shown, His/FLAG-tagged IgG1, cell-free; also called Antibody 78) VH: EVQLVESGGGLVQPGGSLRLSCAASGFNINDHYIHWVRQAPGKGLEWVGAIDPNSGSTVYADSVKGRFTISADTSKNTAYLQMNSLRAEDTAVYYCARSRWFRVLWSYVFDYWGQGTLVTVSS VL: not shown | 2890 | 0.000331 | 114000 | 15800 | 1640 | 4.2 | 59 | – | – |
| SRP2193-B11 (antibody, IgG1, V domains shown, His/FLAG-tagged IgG1, cell-free; also called Antibody 100) VH: EVQLVESGGGLVQPGGSLRLSCAASGFNITGSYIHWVRQAPGKGLEWVGAIDPKSGFTSYADSAKGRFTISADTSKNTAYLQMNSLRAEDTAVYYCARSRWFRVLWSFVFDYWGQGTLVTVSS VL: not shown | 1590 | 0.000251 | 158000 | 15200 | 460 | 1.3 | 66 | – | – |
| SRP2193-B06 (antibody, IgG1, V domains shown, His/FLAG-tagged IgG1, cell-free) VH: EVQLVESGGGLVQPGGSLRLSCAASGFNIDGYYIHWVRQAPGKGLEWVAAIDPHPGSTVYADSVKGRFTISADTSKNTAYLQMNSLRAEDTAVYYCARSRWFRVLWTYVFDYWGQGTLVTVSS VL: not shown | 5310 | 0.000487 | 91700 | 14600 | 1700 | 2.7 | 65 | – | – |
| Conjugate 29 (A05 x C06-F404-LP8 biparatopic) (bispecific antibody, human IgG1, kappa, pAMF at F404 (EU), linked to LP8) heavy 1: MEVQLVESGGGLVQPGGSLRLSCAASGFNIKEYHIHWVRQAPGKGLEWVGYISPNSGSTYYADSVKGRFTISADTSKNTAYLQMNSLRAEDTAVYYCARDHRRYVRPFDYWGQGTLVTVSSASTKGPSVFPLAPSSKSTSGGTAALGCLVKDYFPEPVTVSWNSGALTSGVHTFPAVLQSSGLYSLSSVVTVPSSSLGTQTYICNVNHKPSNTKVDKKVEPKSCDKTHTCPPCPAPELLGGPSVFLFPPKPKDTLMISRTPEVTCVVVDVSHEDPEVKFNWYVDGVEVHNAKTKPREEQYNSTYRVVSVLTVLHQDWLNGKEYKCKVSNKALPAPIEKTISKAKGQPREPQVYTLPPSREEMTKNQVSLWCLVKGFYPSDIAVEWESNGQPENNYKTTPPVLDSDGSFLYSKLTVDKSRWQQGNVFSCSVMHEALHNHYTQKSLSLSPGK heavy 2: MEVQLVESGGGLVQPGGSLRLSCAASGFNITSYGIHWVRQAPGKGLEWVGWIAPNSGNTYYADSVKGRFTISADTSKNTAYLQMNSLRAEDTAVYYCARDIVSTYSYYYLMDYWGQGTLVTVSSASTKGPSVFPLAPSSKSTSGGTAALGCLVKDYFPEPVTVSWNSGALTSGVHTFPAVLQSSGLYSLSSVVTVPSSSLGTQTYICNVNHKPSNTKVDKKVEPKSCDKTHTCPPCPAPELLGGPSVFLFPPKPKDTLMISRTPEVTCVVVDVSHEDPEVKFNWYVDGVEVHNAKTKPREEQYNSTYRVVSVLTVLHQDWLNGKEYKCKVSNKALPAPIEKTISKAKGQPREPQVYTLPPSREEMTKNQVSLSCAVKGFYPSDIAVEWESNGQPENNYKTTPPVLDSDGSFLVSKLTVDKSRWQQGNVFSCSVMHEALHNHYTQKSLSLSPGK light: not shown | – | – | – | – | – | – | – | 27 | 88 |
| Conjugate 27 (D04 x B04-F404-LP8 biparatopic) (bispecific antibody, human IgG1, kappa, pAMF at F404 (EU), linked to LP8) heavy 1: MEVQLVESGGGLVQPGGSLRLSCAASGFNISDYDIHWVRQAPGKGLEWVGGIDPADGSTDYADSVKGRFTISADTSKNTAYLQMNSLRAEDTAVYYCARDYGVYDYWGQGTLVTVSSASTKGPSVFPLAPSSKSTSGGTAALGCLVKDYFPEPVTVSWNSGALTSGVHTFPAVLQSSGLYSLSSVVTVPSSSLGTQTYICNVNHKPSNTKVDKKVEPKSCDKTHTCPPCPAPELLGGPSVFLFPPKPKDTLMISRTPEVTCVVVDVSHEDPEVKFNWYVDGVEVHNAKTKPREEQYNSTYRVVSVLTVLHQDWLNGKEYKCKVSNKALPAPIEKTISKAKGQPREPQVYTLPPSREEMTKNQVSLWCLVKGFYPSDIAVEWESNGQPENNYKTTPPVLDSDGSFLYSKLTVDKSRWQQGNVFSCSVMHEALHNHYTQKSLSLSPGK heavy 2: MEVQLVESGGGLVQPGGSLRLSCAASGFNIAGYAIHWVRQAPGKGLEWVGLITPTPGTSNYADSVKGRFTISVDTSKNTAYLQMNSLRAEDTAAYYCARDYRGVYLYSFYYDYWGQGTLVTVSSASTKGPSVFPLAPSSKSTSGGTAALGCLVKDYFPEPVTVSWNSGALTSGVHTFPAVLQSSGLYSLSSVVTVPSSSLGTQTYICNVNHKPSNTKVDKKVEPKSCDKTHTCPPCPAPELLGGPSVFLFPPKPKDTLMISRTPEVTCVVVDVSHEDPEVKFNWYVDGVEVHNAKTKPREEQYNSTYRVVSVLTVLHQDWLNGKEYKCKVSNKALPAPIEKTISKAKGQPREPQVYTLPPSREEMTKNQVSLSCAVKGFYPSDIAVEWESNGQPENNYKTTPPVLDSDGSFLVSKLTVDKSRWQQGNVFSCSVMHEALHNHYTQKSLSLSPGK light: not shown | – | – | – | – | – | – | – | 24 | 89 |
| Conjugate 28 (A05 x B04-F404-LP8 biparatopic) (bispecific antibody, human IgG1, kappa, pAMF at F404 (EU), linked to LP8) heavy 1: MEVQLVESGGGLVQPGGSLRLSCAASGFNIKEYHIHWVRQAPGKGLEWVGYISPNSGSTYYADSVKGRFTISADTSKNTAYLQMNSLRAEDTAVYYCARDHRRYVRPFDYWGQGTLVTVSSASTKGPSVFPLAPSSKSTSGGTAALGCLVKDYFPEPVTVSWNSGALTSGVHTFPAVLQSSGLYSLSSVVTVPSSSLGTQTYICNVNHKPSNTKVDKKVEPKSCDKTHTCPPCPAPELLGGPSVFLFPPKPKDTLMISRTPEVTCVVVDVSHEDPEVKFNWYVDGVEVHNAKTKPREEQYNSTYRVVSVLTVLHQDWLNGKEYKCKVSNKALPAPIEKTISKAKGQPREPQVYTLPPSREEMTKNQVSLWCLVKGFYPSDIAVEWESNGQPENNYKTTPPVLDSDGSFLYSKLTVDKSRWQQGNVFSCSVMHEALHNHYTQKSLSLSPGK heavy 2: MEVQLVESGGGLVQPGGSLRLSCAASGFNIAGYAIHWVRQAPGKGLEWVGLITPTPGTSNYADSVKGRFTISVDTSKNTAYLQMNSLRAEDTAAYYCARDYRGVYLYSFYYDYWGQGTLVTVSSASTKGPSVFPLAPSSKSTSGGTAALGCLVKDYFPEPVTVSWNSGALTSGVHTFPAVLQSSGLYSLSSVVTVPSSSLGTQTYICNVNHKPSNTKVDKKVEPKSCDKTHTCPPCPAPELLGGPSVFLFPPKPKDTLMISRTPEVTCVVVDVSHEDPEVKFNWYVDGVEVHNAKTKPREEQYNSTYRVVSVLTVLHQDWLNGKEYKCKVSNKALPAPIEKTISKAKGQPREPQVYTLPPSREEMTKNQVSLSCAVKGFYPSDIAVEWESNGQPENNYKTTPPVLDSDGSFLVSKLTVDKSRWQQGNVFSCSVMHEALHNHYTQKSLSLSPGK light: not shown | – | – | – | – | – | – | – | 28 | 88 |
